Test results: patent US10131702B2, “Glucagon-GLP-1-GIP triple agonist compounds” (priority 2013, dated 2018)
Where two headings read alike, the source gives them in different places.

B1: Compound 13 (peptide)
peptide: YAQGTFTSDYSIYLDSKAAHDFVEWLLSAGPSSGAPPPS
HELM: PEPTIDE1{Y.[Aib].Q.G.T.F.T.S.D.Y.S.I.Y.L.D.S.K.A.A.H.D.F.V.E.W.L.L.S.A.G.P.S.S.G.A.P.P.P.S.[am]}$$$$V2.0
SMILES: CC[C@H](C)[C@H](NC(=O)[C@H](CO)NC(=O)[C@H](Cc1ccc(O)cc1)NC(=O)[C@H](CC(=O)O)NC(=O)[C@H](CO)NC(=O)[C@@H](NC(=O)[C@H](Cc1ccccc1)NC(=O)[C@@H](NC(=O)CNC(=O)[C@H](CCC(N)=O)NC(=O)C(C)(C)NC(=O)[C@@H](N)Cc1ccc(O)cc1)[C@@H](C)O)[C@@H](C)O)C(=O)N[C@@H](Cc1ccc(O)cc1)C(=O)N[C@@H](CC(C)C)C(=O)N[C@@H](CC(=O)O)C(=O)N[C@@H](CO)C(=O)N[C@@H](CCCCN)C(=O)N[C@@H](C)C(=O)N[C@@H](C)C(=O)N[C@@H](Cc1c[nH]cn1)C(=O)N[C@@H](CC(=O)O)C(=O)N[C@@H](Cc1ccccc1)C(=O)N[C@H](C(=O)N[C@@H](CCC(=O)O)C(=O)N[C@@H](Cc1c[nH]c2ccccc12)C(=O)N[C@@H](CC(C)C)C(=O)N[C@@H](CC(C)C)C(=O)N[C@@H](CO)C(=O)N[C@@H](C)C(=O)NCC(=O)N1CCC[C@H]1C(=O)N[C@@H](CO)C(=O)N[C@@H](CO)C(=O)NCC(=O)N[C@@H](C)C(=O)N1CCC[C@H]1C(=O)N1CCC[C@H]1C(=O)N1CCC[C@H]1C(=O)N[C@@H](CO)C(N)=O)C(C)C
B2: Compound 18 (peptide)
peptide: YAQGTFTSDYSIYLESKAAHDFVEWLLSA
HELM: PEPTIDE1{Y.[Aib].Q.G.T.F.T.S.D.Y.S.I.Y.L.E.S.K.A.A.H.D.F.V.E.W.L.L.S.A.[am]}$$$$V2.0
SMILES: CC[C@H](C)[C@H](NC(=O)[C@H](CO)NC(=O)[C@H](Cc1ccc(O)cc1)NC(=O)[C@H](CC(=O)O)NC(=O)[C@H](CO)NC(=O)[C@@H](NC(=O)[C@H](Cc1ccccc1)NC(=O)[C@@H](NC(=O)CNC(=O)[C@H](CCC(N)=O)NC(=O)C(C)(C)NC(=O)[C@@H](N)Cc1ccc(O)cc1)[C@@H](C)O)[C@@H](C)O)C(=O)N[C@@H](Cc1ccc(O)cc1)C(=O)N[C@@H](CC(C)C)C(=O)N[C@@H](CCC(=O)O)C(=O)N[C@@H](CO)C(=O)N[C@@H](CCCCN)C(=O)N[C@@H](C)C(=O)N[C@@H](C)C(=O)N[C@@H](Cc1c[nH]cn1)C(=O)N[C@@H](CC(=O)O)C(=O)N[C@@H](Cc1ccccc1)C(=O)N[C@H](C(=O)N[C@@H](CCC(=O)O)C(=O)N[C@@H](Cc1c[nH]c2ccccc12)C(=O)N[C@@H](CC(C)C)C(=O)N[C@@H](CC(C)C)C(=O)N[C@@H](CO)C(=O)N[C@@H](C)C(N)=O)C(C)C
B3: Compound 11 (peptide)
peptide: YAQGTFTSDYSIYLDSKAAHDFVNWLLSA
HELM: PEPTIDE1{Y.[Aib].Q.G.T.F.T.S.D.Y.S.I.Y.L.D.S.K.A.A.H.D.F.V.N.W.L.L.S.A.[am]}$$$$V2.0
SMILES: CC[C@H](C)[C@H](NC(=O)[C@H](CO)NC(=O)[C@H](Cc1ccc(O)cc1)NC(=O)[C@H](CC(=O)O)NC(=O)[C@H](CO)NC(=O)[C@@H](NC(=O)[C@H](Cc1ccccc1)NC(=O)[C@@H](NC(=O)CNC(=O)[C@H](CCC(N)=O)NC(=O)C(C)(C)NC(=O)[C@@H](N)Cc1ccc(O)cc1)[C@@H](C)O)[C@@H](C)O)C(=O)N[C@@H](Cc1ccc(O)cc1)C(=O)N[C@@H](CC(C)C)C(=O)N[C@@H](CC(=O)O)C(=O)N[C@@H](CO)C(=O)N[C@@H](CCCCN)C(=O)N[C@@H](C)C(=O)N[C@@H](C)C(=O)N[C@@H](Cc1c[nH]cn1)C(=O)N[C@@H](CC(=O)O)C(=O)N[C@@H](Cc1ccccc1)C(=O)N[C@H](C(=O)N[C@@H](CC(N)=O)C(=O)N[C@@H](Cc1c[nH]c2ccccc12)C(=O)N[C@@H](CC(C)C)C(=O)N[C@@H](CC(C)C)C(=O)N[C@@H](CO)C(=O)N[C@@H](C)C(N)=O)C(C)C
B4: Compound 17 (peptide)
peptide: YAQGTFTSDYSIYLDEKAAKDFVEWLLSA
HELM: PEPTIDE1{Y.[Aib].Q.G.T.F.T.S.D.Y.S.I.Y.L.D.E.K.A.A.K.D.F.V.E.W.L.L.S.A.[am]}$$$$V2.0
SMILES: CC[C@H](C)[C@H](NC(=O)[C@H](CO)NC(=O)[C@H](Cc1ccc(O)cc1)NC(=O)[C@H](CC(=O)O)NC(=O)[C@H](CO)NC(=O)[C@@H](NC(=O)[C@H](Cc1ccccc1)NC(=O)[C@@H](NC(=O)CNC(=O)[C@H](CCC(N)=O)NC(=O)C(C)(C)NC(=O)[C@@H](N)Cc1ccc(O)cc1)[C@@H](C)O)[C@@H](C)O)C(=O)N[C@@H](Cc1ccc(O)cc1)C(=O)N[C@@H](CC(C)C)C(=O)N[C@@H](CC(=O)O)C(=O)N[C@@H](CCC(=O)O)C(=O)N[C@@H](CCCCN)C(=O)N[C@@H](C)C(=O)N[C@@H](C)C(=O)N[C@@H](CCCCN)C(=O)N[C@@H](CC(=O)O)C(=O)N[C@@H](Cc1ccccc1)C(=O)N[C@H](C(=O)N[C@@H](CCC(=O)O)C(=O)N[C@@H](Cc1c[nH]c2ccccc12)C(=O)N[C@@H](CC(C)C)C(=O)N[C@@H](CC(C)C)C(=O)N[C@@H](CO)C(=O)N[C@@H](C)C(N)=O)C(C)C
B5: Compound 12 (peptide)
peptide: YAQGTFTSDYSIYLDSKAAHDFVEWLLRA
HELM: PEPTIDE1{Y.[Aib].Q.G.T.F.T.S.D.Y.S.I.Y.L.D.S.K.A.A.H.D.F.V.E.W.L.L.R.A.[am]}$$$$V2.0
SMILES: CC[C@H](C)[C@H](NC(=O)[C@H](CO)NC(=O)[C@H](Cc1ccc(O)cc1)NC(=O)[C@H](CC(=O)O)NC(=O)[C@H](CO)NC(=O)[C@@H](NC(=O)[C@H](Cc1ccccc1)NC(=O)[C@@H](NC(=O)CNC(=O)[C@H](CCC(N)=O)NC(=O)C(C)(C)NC(=O)[C@@H](N)Cc1ccc(O)cc1)[C@@H](C)O)[C@@H](C)O)C(=O)N[C@@H](Cc1ccc(O)cc1)C(=O)N[C@@H](CC(C)C)C(=O)N[C@@H](CC(=O)O)C(=O)N[C@@H](CO)C(=O)N[C@@H](CCCCN)C(=O)N[C@@H](C)C(=O)N[C@@H](C)C(=O)N[C@@H](Cc1c[nH]cn1)C(=O)N[C@@H](CC(=O)O)C(=O)N[C@@H](Cc1ccccc1)C(=O)N[C@H](C(=O)N[C@@H](CCC(=O)O)C(=O)N[C@@H](Cc1c[nH]c2ccccc12)C(=O)N[C@@H](CC(C)C)C(=O)N[C@@H](CC(C)C)C(=O)N[C@@H](CCCNC(=N)N)C(=O)N[C@@H](C)C(N)=O)C(C)C
B6: Compound 14 (peptide)
peptide: YAQGTFTSDYSIYLEKKAAHDFVEWLLSA
HELM: PEPTIDE1{Y.[Aib].Q.G.T.F.T.S.D.Y.S.I.Y.L.E.K.K.A.A.H.D.F.V.E.W.L.L.S.A.[am]}$$$$V2.0
SMILES: CC[C@H](C)[C@H](NC(=O)[C@H](CO)NC(=O)[C@H](Cc1ccc(O)cc1)NC(=O)[C@H](CC(=O)O)NC(=O)[C@H](CO)NC(=O)[C@@H](NC(=O)[C@H](Cc1ccccc1)NC(=O)[C@@H](NC(=O)CNC(=O)[C@H](CCC(N)=O)NC(=O)C(C)(C)NC(=O)[C@@H](N)Cc1ccc(O)cc1)[C@@H](C)O)[C@@H](C)O)C(=O)N[C@@H](Cc1ccc(O)cc1)C(=O)N[C@@H](CC(C)C)C(=O)N[C@@H](CCC(=O)O)C(=O)N[C@@H](CCCCN)C(=O)N[C@@H](CCCCN)C(=O)N[C@@H](C)C(=O)N[C@@H](C)C(=O)N[C@@H](Cc1c[nH]cn1)C(=O)N[C@@H](CC(=O)O)C(=O)N[C@@H](Cc1ccccc1)C(=O)N[C@H](C(=O)N[C@@H](CCC(=O)O)C(=O)N[C@@H](Cc1c[nH]c2ccccc12)C(=O)N[C@@H](CC(C)C)C(=O)N[C@@H](CC(C)C)C(=O)N[C@@H](CO)C(=O)N[C@@H](C)C(N)=O)C(C)C

Assays:
Assay in all cases: cell-based or functional assay
human GIP receptor [1] = molecular target: T1, human GIP receptor (human, UniProt P48546 22-466)
T1 sequence: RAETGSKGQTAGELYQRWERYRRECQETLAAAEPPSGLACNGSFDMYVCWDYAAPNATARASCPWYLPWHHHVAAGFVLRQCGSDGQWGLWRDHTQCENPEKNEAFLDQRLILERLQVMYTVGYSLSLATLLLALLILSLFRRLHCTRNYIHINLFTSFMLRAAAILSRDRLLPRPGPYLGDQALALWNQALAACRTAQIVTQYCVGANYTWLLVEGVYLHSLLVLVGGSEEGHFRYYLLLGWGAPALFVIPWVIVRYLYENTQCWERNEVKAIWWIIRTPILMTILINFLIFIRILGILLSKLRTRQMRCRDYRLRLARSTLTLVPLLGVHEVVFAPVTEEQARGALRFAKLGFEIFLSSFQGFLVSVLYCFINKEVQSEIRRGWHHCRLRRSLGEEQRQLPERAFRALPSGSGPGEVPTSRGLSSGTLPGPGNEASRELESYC

[2] = molecular target: T2, human glucagon-like peptide 1 receptor (human, UniProt P43220 24-463)
human glucagon receptor [3] = molecular target: T3, human glucagon receptor (human, UniProt P47871 26-477)
T3 sequence (P47871 26-477): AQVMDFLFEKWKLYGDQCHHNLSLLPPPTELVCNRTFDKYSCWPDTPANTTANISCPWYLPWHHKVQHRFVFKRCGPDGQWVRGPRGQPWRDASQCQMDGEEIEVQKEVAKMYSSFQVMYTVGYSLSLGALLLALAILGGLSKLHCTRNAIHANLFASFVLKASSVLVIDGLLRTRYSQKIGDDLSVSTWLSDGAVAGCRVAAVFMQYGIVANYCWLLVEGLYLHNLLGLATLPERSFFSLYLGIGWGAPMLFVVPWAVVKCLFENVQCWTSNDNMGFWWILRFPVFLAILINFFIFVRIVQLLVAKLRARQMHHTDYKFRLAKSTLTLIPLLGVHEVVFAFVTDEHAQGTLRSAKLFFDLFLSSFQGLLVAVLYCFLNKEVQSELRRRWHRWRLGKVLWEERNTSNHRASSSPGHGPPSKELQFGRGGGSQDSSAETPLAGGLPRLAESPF

human GIP receptor [4] = molecular target: T1, human GIP receptor; remark: listed apart in the source
[5] = molecular target: T2, human glucagon-like peptide 1 receptor; remark: listed apart in the source
human glucagon receptor [6] = molecular target: T3, human glucagon receptor; remark: listed apart in the source

Row | Binder | EC50 (cAMP induction) (human GIP receptor [1]) [pM] | EC50 (cAMP induction) [2] [pM] | EC50 (cAMP induction) (human glucagon receptor [3]) [pM] | EC50 (cAMP induction) (human GIP receptor [4]) [pM] | EC50 (cAMP induction) [5] [pM] | EC50 (cAMP induction) (human glucagon receptor [6]) [pM]
1 | B1 | 83 | 9.9 | 240 | 10 | 240 | 240
2 | B2 | 70 | 21 | 150 | 21 | 150 | 150
3 | B3 | 280 | 20 | 110 | 20 | 110 | 110
4 | B4 | 91 | 11 | 160 | 13 | 160 | 160
5 | B5 | 84 | 12 | 76 | 12 | 76 | 76
6 | B6 | 60 | 13 | 100 | 13 | 100 | 100
